Experimental data from patent publication US20100310573A1 (Kyowa Kirin, published 2010).
Changes are numbered by the printed parent chain.

B1: anti-CD4 chimeric antibody KM4048 (antibody, V domains shown)
VH: QVQLKESGPGLVQPSQTLSLTCTVSGLSLTSNSVSWIRQPPGKGLEWMGIIWSNGDTDYNSAIKSRLSISRDTSKSQVFLKMNSLQTEDTAMYFCANPYYGYNFPFDYWGQGVMVTVSS
VL: DIQMTQSPASLSASLEEIVTITCKASQGIDNYLSWYQQKPGKSPQLLIYDATSLADGVPSRFSGSRSGTQYSLKISRPQVDDSGIYYCLQSYSTPFTFGSGTKLEIK
notes: Variable regions of rat KM4068 joined to the '113F type' human IgG1/IgG3 heavy chain constant region (US2007/0148165) and a human kappa constant region; Expressed in FUT8 knockout CHO cells (0% fucose)
B2: anti-CD4 chimeric antibody KM4049 (antibody, V domains shown)
VH: B1 VH with L27S, I50V, T57A, N97S, N103Y
VL: B1 VL with G28A, N31A
notes: Variable regions of rat KM4069 joined to the '113F type' human IgG1/IgG3 heavy chain constant region (US2007/0148165) and a human kappa constant region; Expressed in FUT8 knockout CHO cells (0% fucose)
B3: anti-CD4 chimeric antibody KM4046 (antibody, V domains shown)
VH: EVQLEESGGGLVQPGRSLKLSCLASGFTFSNYGMNWIRQAPGKGLEWVASISGSSTYIYYADTVKGRFTISRENAENTLYLQMTSLRSEDTALYYCAREGSSTDRYYEVSFAYWGQGTLVTVSS
VL: DVVLTQTPVSLSVTLGDQASISCRSSQSLEYSDGYTYLEWYLQKPGQSPQVLIYGVSNRFSGVPDRFIGSGSGTDFTLKISRVEPEDLGVYYCFQATHDPYTFGAGTRLELK
notes: Variable regions of rat KM4066 joined to the '113F type' human IgG1/IgG3 heavy chain constant region (US2007/0148165) and a human kappa constant region; Expressed in FUT8 knockout CHO cells (0% fucose)
B4: anti-CD4 chimeric antibody KM4047 (antibody, V domains shown)
VH: QVKLLQSGAALVKPGASVKMSCKASGYTFTDYWVHWVKQSHGKSLEWIGEIYPNNNTTNFNEKFKGKATLTVDKFTSTAYMELSRLTSEDSAIYYCTRGTVYYGLGYFDHWGQGVMVTVSS
VL: DIRMTQSPASLSASLGETVNIECLASEDVYSDLAWYQQKPGKSPQLLIYNANNLQSGVPSRFSGSGSGTRYSLKINSLQSEDVATYFCQQYNNYPPYTFGAGTKLELK
notes: Variable regions of rat KM4067 joined to the '113F type' human IgG1/IgG3 heavy chain constant region (US2007/0148165) and a human kappa constant region; Expressed in FUT8 knockout CHO cells (0% fucose)
B5: anti-CD4 human antibody 6G5-1 (antibody, V domains shown)
VH: QVQLQQWGAGLLKPSETLSLTCAVYGGSFSGYYWSWIRQPPGKGLEWIGEINHSGSTNYNPSLKSRVTISVDTSKNQFSLKLSSVTAADTAVYYCARVINWFDPWGQGTLVTVSS
VL: DIQMTQSPSSVSASVGDRVTITCRASQDISSWLAWYQHKPGKAPKLLIYAASSLQSGVPSRFSGSGSGTDFTLTISSLQPEDFATYYCQQANSFPYTFGQGTKLEIKR
B6: anti-CD4 rat monoclonal antibody KM4065 (antibody, V domains shown)
VH: EVQLVESGGGLVQPGRSMKLSCAASGFTFSNYGMAWVRQAPTKGLEWVATISYDGSITYYRDSVKGRFTISRDHAKSTLYLQMNSLRSEDTATYYCTREEQYSSWYFDFWGPGIMVTVSS
VL: DIVLTQSPALAVSLGQRATISCRASQSVSISSHDLMQWYQQKPGQQPKLLIYDAFNLASGIPVRFSGSGSGTDFTLTIDPVQADDIATYYCQQSKDDPYTFGAGTKLELK
notes: Rat hybridoma IgG with a kappa light chain
B7: anti-CD4 rat monoclonal antibody KM4068 (antibody, V domains shown)
VH: B1 VH
VL: B1 VL
notes: as for B6
B8: anti-CD4 rat monoclonal antibody KM4069 (antibody, V domains shown)
VH: B1 VH with L27S, I50V, T57A, N97S, N103Y
VL: B1 VL with G28A, N31A
notes: as for B6
B9: anti-CD4 rat monoclonal antibody KM4066 (antibody, V domains shown)
VH: B3 VH
VL: B3 VL
notes: as for B6
B10: anti-CD4 rat monoclonal antibody KM4067 (antibody, V domains shown)
VH: B4 VH
VL: B4 VL
notes: as for B6
B11: anti-CD4 humanized antibody HV3LV0 (antibody, V domains shown)
VH: B6 VH with M18L, K19R, T42G, H74N, A75S, S77N, S88A, P112Q, M115L
VL: DIQLTQSPSSLSASVGDRVTITCRASQSVSISSHDLMQWYQQKPGKAPKLLIYDAFNLASGVPSRFSGSGSGTDFTLTISSLQPEDFATYYCQQSKDDPYTFGQGTKLEIK
notes: Expressed from the humanized antibody expression vector pKANTEX93
B12: anti-CD4 humanized antibody HV0LV0 (antibody, V domains shown)
VH: EVQLVESGGGLVQPGRSLRLSCAASGFTFSNYGMAWVRQAPGKGLEWVATISYDGSITYYRDSVKGRFTISRDNSKNTLYLQMNSLRAEDTAVYYCAREEQYSSWYFDFWGQGTLVTVSS
VL: B11 VL
notes: CDRs of KM4065 grafted into human framework regions; Expressed from the humanized antibody expression vector pKANTEX93
B13: anti-CD4 humanized antibody HV2LV0 (antibody, V domains shown)
VH: B12 VH with A97T, T114I
VL: B11 VL
notes: Expressed from the humanized antibody expression vector pKANTEX93; also called KM8045; humanized antibody KM8045
B14: anti-CD4 humanized antibody HV4LV0 (antibody, V domains shown)
VH: B12 VH with L18M, V93T, A97T, T114I
VL: B11 VL
notes: as for B11
B15: anti-CD4 humanized antibody HV4LV6 (antibody, V domains shown)
VH: B12 VH with L18M, V93T, A97T, T114I
VL: B11 VL with A13V, V15L, V19A, A47Q, V62I, L82V
notes: as for B11

target: T1, recombinant human CD4 (catalogue number: 514-CD/CF, manufactured by R&D Systems) (human, UniProt P01730 26-390); assay: SPR, Biacore T100; antibody captured on anti-human IgG chip, recombinant human CD4 flowed; 1:1 binding model
T1 construct: Bought protein (R&D Systems); also called recombinant CD4
Procedure: (§1) In order to kinetically analyze the binding activity of anti-CD4 chimeric antibodies KM4045 to KM4049, 6G5-1 and 6G5-P to recombinant human CD4, the binding activity was measured by surface plasmon resonance method (SPR). All of the following manipulations were carried out using a Biacore T100 (manufactured by GE Healthcare Bio-Sciences). The anti-human IgG antibody was immobilized on a CM5 sensor chip (manufactured by GE Healthcare Bio-Sciences) by an amine coupling method using a Human Antibody Capture Kit (manufactured by GE Healthcare Bio-Sciences) in accordance with the protocols attached thereto. An assay sample (anti-CD4 chimeric antibodies KM4045 to KM4049) was added to be captured on the anti-human IgG antibody-immobilized chip to give 100 RU (resonance unit). Thereafter, the recombinant human CD4 (manufactured by R&D) diluted from 2500 ng/mL in five steps was allowed to run at a flow rate of 30 μL/min onto the chip, and the sensorgram corresponding to each concentration was obtained. The analysis was carried out in the 1:1 binding model using an analysis software attached to the apparatus, Biacore T100 Evaluation software (manufactured by Biacore), thereby calculating an association rate constant ka and a dissociation rate constant kd of respective antibodies for human CD4.
As a result, an association rate constant ka, a dissociation rate constant kd, and a dissociation constant KD (kd/ka) of individual antibodies thus obtained are given in Table 5.

| Binder | Kd | koff | kon |
| --- | --- | --- | --- |
| B1 | 651 pM | 0.00381 s⁻¹ | 5.85e+06 M⁻¹ s⁻¹ |
| B2 | 200 pM | 0.00116 s⁻¹ | 5.77e+06 M⁻¹ s⁻¹ |
| B3 | 61.4 pM | 5.12e-05 s⁻¹ | 834000 M⁻¹ s⁻¹ |
| B4 | 369 pM | 0.000488 s⁻¹ | 1.33e+06 M⁻¹ s⁻¹ |
| B5 | 1460 pM | 0.000872 s⁻¹ | 595000 M⁻¹ s⁻¹ |

target: T1, recombinant human CD4 (catalogue …); assay: SPR, Biacore T100; antibody captured on anti-mouse IgG chip, recombinant human CD4 flowed; 1:1 binding model
Procedure: In order to kinetically analyze the binding activity of anti-CD4 rat monoclonal antibodies KM4065 to KM4069 and commercially available anti-human CD4 mouse antibody for recombinant human CD4, the binding activity was measured by surface plasmon resonance method (SPR). All of the following manipulations were carried out using the Biacore T100 (manufactured by GE Healthcare Bio-Sciences). The anti-mouse IgG antibody was immobilized on a CM5 sensor chip (manufactured by GE Healthcare Bio-Sciences) by an amine coupling method using a Mouse Antibody Capture Kit (manufactured by GE Healthcare Bio-Sciences) in accordance with the protocols attached thereto. Anti-CD4 rat monoclonal antibodies KM4065 to KM4069, Leu-3a (BD Biosciences), OKT4 (BioLegend) and 13B8.2 (Beckman Coulter) were added to be captured on the anti-mouse IgG antibody-immobilized chip to give 100 RU (resonance unit), respectively. Thereafter, the recombinant human CD4 (manufactured by R&D) diluted from 2500 ng/mL in five steps was allowed to run at a flow rate of 30 μL/min onto the chip, and the sensorgram corresponding to each concentration was obtained. The analysis was carried out in the 1:1 binding model using an analysis software attached to the apparatus, thereby calculating an association rate constant ka and a dissociation rate constant kd of individual antibodies for the human CD4.
As a result, an association rate constant (hereinafter, referred to as “ka”), a dissociation rate constant (hereinafter, referred to as “kd”) and a dissociation constant KD (kd/ka) of individual antibodies thus obtained are given in Table 2.

| Binder | Kd | koff | kon |
| --- | --- | --- | --- |
| B6 | 4.26 pM | 1.52e-06 s⁻¹ | 357000 M⁻¹ s⁻¹ |
| B7 | 1100 pM | 0.00204 s⁻¹ | 1.85e+06 M⁻¹ s⁻¹ |
| B8 | 482 pM | 0.000584 s⁻¹ | 1.21e+06 M⁻¹ s⁻¹ |
| B9 | 88.2 pM | 0.000118 s⁻¹ | 1.34e+06 M⁻¹ s⁻¹ |
| B10 | 541 pM | 0.000473 s⁻¹ | 875000 M⁻¹ s⁻¹ |

target: T1, recombinant human CD4 (catalogue …); assay: SPR, Biacore T100; antibody captured on anti-human IgG chip, recombinant human CD4 flowed; 1:1 binding model; remark: another data set of the same source
Procedure: as §1
The measurement of a binding activity was carried out according to the method described in Example 7(2). The association rate constant ka, the dissociation rate constant kd and the dissociation constant KD (kd/ka) of respective antibodies thus obtained are shown in Table 6.

| Binder | Kd | koff | kon |
| --- | --- | --- | --- |
| B11 | < 7.52 pM | < 1e-05 s⁻¹ | 1.33e+06 M⁻¹ s⁻¹ |
| B12 | 19.5 pM | 2.86e-05 s⁻¹ | 1.47e+06 M⁻¹ s⁻¹ |
| B13 | < 8.77 pM | < 1e-05 s⁻¹ | 1.14e+06 M⁻¹ s⁻¹ |
| B14 | < 12.6 pM | < 1e-05 s⁻¹ | 791000 M⁻¹ s⁻¹ |
| B15 | < 24.8 pM | < 1e-05 s⁻¹ | 403000 M⁻¹ s⁻¹ |
| B5 | 1540 pM | 0.000824 s⁻¹ | 534000 M⁻¹ s⁻¹ |

target: T1, recombinant human CD4 (catalogue …); assay: SPR, Biacore T100; summary sentence to Table 6

| Binder | Kd |
| --- | --- |
| B11 | ≤ 100 pM |
| B12 | ≤ 100 pM |
| B13 | ≤ 100 pM |
| B14 | ≤ 100 pM |
| B15 | ≤ 100 pM |

target: T1, recombinant human CD4 (catalogue …); assay: Biacore T100

| Binder | binding activity relative to the anti-CD4 chimeric antibody KM4045 |
| --- | --- |
| B11 | 0.5 fold of KM4045 |
| B13 | 0.5 fold of KM4045 |
| B14 | 0.5 fold of KM4045 |
| B15 | 0.5 fold of KM4045 |
